Key:
[1] = target: human claudin 18 splice variant 2 (CLDN18.2) (human); assay: cell-based or functional assay
[2] = target: T1, human claudin 18 splice variant 2 (CLDN18.2) (human); assay: flow cytometry (Table 6); ProteinL-FITC detection
T1 construct: also called claudin 18 isotype 2
Procedure: (§1) 100 μl of the cell suspension per well (correspond to 2×10⁵ cells/well) were transferred to a round bottom 96-well microtiter plate. […] The cells were centrifuged for 1 min at 1500 rpm and the supernatant was discarded. […] After incubation, 100 μl FACS buffer were added to each sample, the cells were centrifuged for 1 min at 1500 rpm and the supernatant was discarded. The washing step with FACS buffer was repeated twice. Finally, the cells were resuspended in 100 μl FACS buffer and binding was determined using a BD FACS Array Bioanalyzer.

[3] = target: T1, human claudin 18 splice variant 2 …; assay: flow cytometry (Table 6); ProteinL-FITC detection; normalized to IMAB362
Procedure: as §1

[4] = target: T1, human claudin 18 splice variant 2 …; assay: flow cytometry, HEK293 cells stably expressing CLDN18.2; ProteinL-FITC detection; binding assay 4
[5] = target: T1, human claudin 18 splice variant 2 …; assay: flow cytometry, HEK293 cells stably expressing CLDN18.2; APC-conjugated secondary antibody; binding assay 3
Procedure: as §1

[6] = target: T1, human claudin 18 splice variant 2 …; assay: flow cytometry, HEK293 cells stably expressing CLDN18.2; ProteinL-FITC detection; binding assay 4; normalized to IMAB362
Procedure: as §1

[7] = target: T1, human claudin 18 splice variant 2 …; assay: flow cytometry, HEK293 cells stably expressing CLDN18.2; APC-conjugated secondary antibody; binding assay 3; normalized to IMAB362
Procedure: as §1

[8] = target: T1, human claudin 18 splice variant 2 …; assay: cell-based or functional assay; remark: listed apart in the source
[9] = target: T1, human claudin 18 splice variant 2 …; assay: cell-based or functional assay; remark: listed apart in the source
[10] = target: T1, human claudin 18 splice variant 2 …; assay: cell-based or functional assay; remark: listed apart in the source
[11] = target: T1, human claudin 18 splice variant 2 …; assay: flow cytometry on BxPC-3~CLDN18.2 cells, second assay
[12] = target: T1, human claudin 18 splice variant 2 …; assay: flow cytometry on BxPC-3~CLDN18.2 cells, antibody up to 20 µg/ml
Procedure: as §1

[13] = target: T1, human claudin 18 splice variant 2 …; assay: flow cytometry on HEK293~CLDN18.2 cells, antibody up to 20 µg/ml
Procedure: Binding was analyzed by flow cytometry at antibody concentrations up to 20 μg/ml. Data points (n=2 replicates) are depicted as mean±SD.
as §1
The binding specificity was analyzed by flow cytometry using HEK293 transfectants engineered to overexpress human CLDN18.2 or the highly homologous protein human CLDN18.1.

[14] = target: T1, human claudin 18 splice variant 2 …; assay: flow cytometry on NCI-N87~CLDN18.2 cells, antibody up to 20 µg/ml
Procedure: as §1

[15] = target: T1, human claudin 18 splice variant 2 …; assay: flow cytometry on NUGC-4 10cE8 cells (endogenous CLDN18.2), second assay
[16] = target: T1, human claudin 18 splice variant 2 …; assay: flow cytometry on NUGC-4 10cF7-5 sort 3a cells (endogenous CLDN18.2), second assay
[17] = target: T1, human claudin 18 splice variant 2 …; assay: flow cytometry on NUGC-4 10cE8 cells (endogenous CLDN18.2), antibody up to 20 µg/ml
Procedure: as §1
Binding properties were tested at different antibody concentrations in a range of 0.1 to 20 μg/ml (FIG. 4, Table 8).

[18] = target: T1, human claudin 18 splice variant 2 …; assay: flow cytometry on NUGC-4 10cF7-5 sort 3a cells (endogenous CLDN18.2), antibody up to 20 µg/ml
Procedure: as §1

[19] = target: human claudin 18 splice variant 1 (CLDN18.1) (human, UniProt P56856 1-261); assay: flow cytometry, HEK293 cells stably expressing CLDN18.1 (column 'CLDN18.1 reactive')

| Binder | Cell viability EC50 [%] normalized to IMAB362, Fab-ZAP endocytosis assay [1] [%] | Cell viability EC50 [ng/ml], Fab-ZAP endocytosis assay on HEK293~CLDN18.2 cells [1] [ng/mL] | Max. viability reduction normalized [%], Fab-ZAP endocytosis assay [1] [%] | EC50 [2] [µg/mL] | EC50 normalized [%] [3] [%] | EC50 [4] [µg/mL] | Max. binding [MFI] [4] [MFI] | EC50 [5] [µg/mL] | Max. binding [MFI] [5] [MFI] | EC50 normalized [%] [6] [%] | EC50 normalized [%] [7] [%] | Max. binding normalized [%] [7] [%] | EC50 [ng/ml] of reduction of cell viability (XTT, 72 h), BxPC-3~CLDN18.2 cells [8] [ng/mL] | EC50 [ng/ml] of reduction of cell viability (XTT, 72 h), BxPC-3~CLDN18.2 cells, second assay [8] [ng/mL] | EC50 [ng/ml] of reduction of cell viability (XTT, 72 h), NUGC-4 10cE8 cells [8] [ng/mL] | EC50 [ng/ml] of reduction of cell viability (XTT, 72 h), NUGC-4 10cF7-5 sort 3a cells [8] [ng/mL] | ADCC EC50 [ng/ml], NUGC-4 10cF7_5 sort3a p3151#10 cells, PBMC of Donor 1 [9] [ng/mL] | ADCC EC50 [ng/ml], NUGC-4 10cF7_5 sort3a p3151#10 cells, PBMC of Donor 2 [9] [ng/mL] | CDC EC50 [ng/ml], KATO-III FGF-BP#12 adM p3151#25 cells [10] [ng/mL] | CDC EC50 [ng/ml], NUGC-4 10cF7_5 sort3a p3151#10 cells [10] [ng/mL] | further results |
| --- | --- | --- | --- | --- | --- | --- | --- | --- | --- | --- | --- | --- | --- | --- | --- | --- | --- | --- | --- | --- | --- |
| mu mAB362 (mouse IgG1) (antibody, V domains shown, also called mu muAB362 (IgG1)) VH: QVQLQQPGAELVRPGASVKLSCKASGYTFTSYWINWVKQRPGQGLEWIGNIYPSDSYTNYNQKFKDKATLTVDKSSSTAYMQLSSPTSEDSAVYYCTRSWRGNSFDYWGQGTTLTVSS VL: DIVMTQSPSSLTVTAGEKVTMSCKSSQSLLNSGNQKNYLTWYQQKPGQPPKLLIYWASTRESGVPDRFTGSGSGTDFTLTISSVQAEDLAVYYCQNDYSYPFTFGSGTKLEIK | 17 | 2.2 | 66 | 0.654 | 53 | 4.29 | 5910 | 2.24 | 8830 | 345 | 343 | 111 |  |  |  |  |  |  |  |  | Max. binding normalized [%] [6]: 111% |
| IMAB362-vcMMAE (antibody, human IgG1, kappa, V domains shown, vcMMAE (Val-Cit linker) coupled to sulfhydryl groups set on lysine amines with 2-iminothiolane; drug to antibody ratio 4.5; sites not stated, also called MMAE-conjugated IMAB362) VH: QVQLQQPGAELVRPGASVKLSCKASGYTFTSYWINWVKQRPGQGLEWIGNIYPSDSYTNYNQKFKDKATLTVDKSSSTAYMQLSSPTSEDSAVYYCTRSWRGNSFDYWGQGTTLTVSS VL: DIVMTQSPSSLTVTAGEKVTMSCKSSQSLLNSGNQKNYLTWYQQKPGQPPKLLIYWASTRESGVPDRFTGSGSGTDFTLTISSVQAEDLAVYYCQNDYSYPFTFGSGTKLEIKR |  |  |  |  |  |  |  |  |  |  |  |  | 48 | 43 | 631 | 338 | 1080 | 275 | 7240 | 28300 | EC50 [ng/ml] of reduction of cell viability (XTT, 72 h), NCI-N87~CLDN18.2 cells, second assay [8]: 180 ng/mL; EC50 [11]: 0.261 µg/mL; EC50 [12]: 0.183 µg/mL; EC50 [13]: 1.59 µg/mL; EC50 [14]: 0.103 µg/mL; EC50 [15]: 5.46 µg/mL; EC50 [16]: 4.05 µg/mL; EC50 [17]: 2.83 µg/mL; EC50 [18]: 2.52 µg/mL |
| mu mAB294 (antibody, V domains shown, Tied by its number) VH: QIQLVQSGPELKKPGETVKISCKASGYTFTNYGMNWVKQAPGKGLKWMGWINTNTGEPTYAEEFKGRFAFSLETSASTAYLQINNLKNEDTATYFCARLGFGNAMDYWGQGTSVTVSS VL: DIVMTQSPSSLTVTAGEKVTMSCKSSQSLLNSGNQKNYLTWYQQKPGQPPKLLIYWASTRESGVPDRFTGSGSGTDFTLTISSVQAEDLAVYYCQNDYSYPLTFGAGTKLELK |  |  |  |  |  |  |  | 0.348 | 989 |  | 53 | 12 |  |  |  |  |  |  |  |  | binding result [19]: no binding |
| mu mAB362 (mouse IgG2a) (antibody, V domains shown, Mouse IgG2a form of mu mAB362; also called mu muAB362 (IgG2a)) VH: QVQLQQPGAELVRPGASVKLSCKASGYTFTSYWINWVKQRPGQGLEWIGNIYPSDSYTNYNQKFKDKATLTVDKSSSTAYMQLSSPTSEDSAVYYCTRSWRGNSFDYWGQGTTLTVSS VL: DIVMTQSPSSLTVTAGEKVTMSCKSSQSLLNSGNQKNYLTWYQQKPGQPPKLLIYWASTRESGVPDRFTGSGSGTDFTLTISSVQAEDLAVYYCQNDYSYPFTFGSGTKLEIK | 231 | ~30 | 66 | 4.29 | 345 | 0.654 | 4880 |  |  | 53 |  |  |  |  |  |  |  |  |  |  |  |
| IMAB362-DM4 (antibody, human IgG1, kappa, V domains shown, DM4 coupled via SPDB linker to primary amines (lysine side chains or N-terminus) of the antibody; drug to antibody ratio 3.2; sites not stated) VH: QVQLQQPGAELVRPGASVKLSCKASGYTFTSYWINWVKQRPGQGLEWIGNIYPSDSYTNYNQKFKDKATLTVDKSSSTAYMQLSSPTSEDSAVYYCTRSWRGNSFDYWGQGTTLTVSS VL: DIVMTQSPSSLTVTAGEKVTMSCKSSQSLLNSGNQKNYLTWYQQKPGQPPKLLIYWASTRESGVPDRFTGSGSGTDFTLTISSVQAEDLAVYYCQNDYSYPFTFGSGTKLEIKR |  |  |  |  |  |  |  |  |  |  |  |  | 43 | 54 | 372 | 155 | 1150 | 217 | 6440 | 15800 | EC50 [ng/ml] of reduction of cell viability (XTT, 72 h), NCI-N87~CLDN18.2 cells [8]: 75 ng/mL; EC50 [11]: 0.425 µg/mL; EC50 [12]: 0.507 µg/mL; EC50 [13]: 1.47 µg/mL; EC50 [14]: 0.274 µg/mL; EC50 [15]: 7.49 µg/mL; EC50 [16]: 3.91 µg/mL; EC50 [17]: 3.05 µg/mL; EC50 [18]: 2.6 µg/mL |

Reference: patent US20180117174A1 (GANYMED PHARMACEUTICALS, published 2018)
